Laboratory results taken from patent publication US20180155451A1 (published 2018).

T1: FcγRIIa H (FcγRIIa, allotype with His at position 131), extracellular domain with C-terminal His tag (human, UniProt P12318 34-217)
T1 construct: extracellular domain; Soluble receptor expressed in FreeStyle293 cells and used as the analyte in Biacore; also called FcgRIIa H; FcγRIIa type H; not shown: His tag attached to the C terminus
T1 sequence (looked up): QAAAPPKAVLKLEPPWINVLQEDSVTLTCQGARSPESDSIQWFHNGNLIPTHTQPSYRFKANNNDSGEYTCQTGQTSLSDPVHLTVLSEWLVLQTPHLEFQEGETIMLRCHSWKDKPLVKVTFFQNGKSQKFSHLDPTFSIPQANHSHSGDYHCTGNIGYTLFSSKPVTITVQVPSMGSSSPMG

B1: GpH7-B3 variant T335_09D/GpL16-k0 (homodimerized antibody, Ho Ab) (antibody, human IgG1, kappa)
heavy: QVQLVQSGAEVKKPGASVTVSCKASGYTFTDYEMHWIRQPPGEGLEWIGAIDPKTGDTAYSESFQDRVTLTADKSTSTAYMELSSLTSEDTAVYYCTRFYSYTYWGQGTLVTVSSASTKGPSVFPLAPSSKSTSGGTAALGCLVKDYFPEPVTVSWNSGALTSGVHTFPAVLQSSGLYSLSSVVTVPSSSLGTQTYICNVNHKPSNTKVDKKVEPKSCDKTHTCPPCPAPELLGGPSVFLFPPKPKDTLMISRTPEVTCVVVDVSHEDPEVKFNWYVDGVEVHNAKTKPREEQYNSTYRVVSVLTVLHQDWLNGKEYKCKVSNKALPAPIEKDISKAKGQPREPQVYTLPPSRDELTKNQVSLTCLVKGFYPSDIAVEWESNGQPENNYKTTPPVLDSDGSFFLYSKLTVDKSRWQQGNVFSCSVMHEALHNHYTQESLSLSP
light: DIVMTQSPLSLPVTPGEPASISCQASESLVHSNRNTYLHWYLQKPGQSPQLLIYKVSNRFSGVPDRFSGSGSGTDFTLKISRVEAEDVGVYYCSQNTHVPPTFGQGTKVEIERTVAAPSVFIFPPSDEQLKSGTASVVCLLNNFYPREAKVQWKVDNALQSGNSQESVTEQDSKDSTYSLSSTLTLSKADYEKHKVYACEVTHQGLSSPVTKSFNRGEC
notes: Anti-glypican-3 IgG1 (GpH7-B3 background); substitution in both H chains; Position is EU numbering; also called Ho Ab T335D
B2: GpH7-B3 variant Y300_07I/GpL16-k0 (homodimerized antibody, Ho Ab) (antibody, human IgG1, kappa)
heavy: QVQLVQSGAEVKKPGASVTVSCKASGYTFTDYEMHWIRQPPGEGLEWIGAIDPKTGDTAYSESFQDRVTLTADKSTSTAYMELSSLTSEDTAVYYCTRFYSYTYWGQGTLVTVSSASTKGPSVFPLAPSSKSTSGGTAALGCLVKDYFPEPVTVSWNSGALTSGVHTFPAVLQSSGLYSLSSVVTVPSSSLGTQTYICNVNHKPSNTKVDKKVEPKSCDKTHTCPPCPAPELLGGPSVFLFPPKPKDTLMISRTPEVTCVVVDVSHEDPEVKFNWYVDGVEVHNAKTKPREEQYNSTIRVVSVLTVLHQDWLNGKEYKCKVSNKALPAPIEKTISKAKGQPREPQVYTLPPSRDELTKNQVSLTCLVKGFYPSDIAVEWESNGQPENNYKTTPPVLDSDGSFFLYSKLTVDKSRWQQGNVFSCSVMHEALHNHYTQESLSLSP
light: B1 light
notes: Anti-glypican-3 IgG1 (GpH7-B3 background); substitution in both H chains; Position is EU numbering; also called Ho Ab Y300I
B3: GpH7-B3 variant T335_08L/GpL16-k0 (homodimerized antibody, Ho Ab) (antibody, human IgG1, kappa)
heavy: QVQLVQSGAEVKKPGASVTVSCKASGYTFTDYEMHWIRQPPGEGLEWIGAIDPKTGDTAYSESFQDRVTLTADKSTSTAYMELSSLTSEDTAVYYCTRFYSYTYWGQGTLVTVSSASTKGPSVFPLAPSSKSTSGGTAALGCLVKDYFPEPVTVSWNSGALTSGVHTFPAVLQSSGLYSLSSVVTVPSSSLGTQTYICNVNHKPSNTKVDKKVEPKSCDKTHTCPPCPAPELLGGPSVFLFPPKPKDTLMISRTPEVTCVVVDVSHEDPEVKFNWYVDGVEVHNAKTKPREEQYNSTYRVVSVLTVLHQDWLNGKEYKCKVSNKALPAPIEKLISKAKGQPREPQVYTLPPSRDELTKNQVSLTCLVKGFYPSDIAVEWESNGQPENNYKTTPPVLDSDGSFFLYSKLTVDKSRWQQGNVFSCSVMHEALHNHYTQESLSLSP
light: B1 light
notes: Anti-glypican-3 IgG1 (GpH7-B3 background); substitution in both H chains; Position is EU numbering; also called Ho Ab T335L
B4: GpH7-B3 variant T335_04F/GpL16-k0 (homodimerized antibody, Ho Ab) (antibody, human IgG1, kappa)
heavy: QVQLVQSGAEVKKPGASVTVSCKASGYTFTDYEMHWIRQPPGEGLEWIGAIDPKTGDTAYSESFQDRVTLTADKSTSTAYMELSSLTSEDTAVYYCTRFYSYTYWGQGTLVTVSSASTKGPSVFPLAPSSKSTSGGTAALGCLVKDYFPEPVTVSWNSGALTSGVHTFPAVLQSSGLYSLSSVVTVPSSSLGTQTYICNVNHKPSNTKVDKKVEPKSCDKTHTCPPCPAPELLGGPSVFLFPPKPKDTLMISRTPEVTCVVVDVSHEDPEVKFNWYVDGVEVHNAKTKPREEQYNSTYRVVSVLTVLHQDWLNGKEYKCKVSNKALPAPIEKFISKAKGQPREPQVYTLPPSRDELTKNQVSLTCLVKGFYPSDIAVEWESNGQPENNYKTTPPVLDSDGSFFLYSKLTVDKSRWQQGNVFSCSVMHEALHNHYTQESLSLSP
light: B1 light
notes: Anti-glypican-3 IgG1 (GpH7-B3 background); substitution in both H chains; Position is EU numbering; also called Ho Ab T335F
B5: GpH7-B3 variant Y300_06M/GpL16-k0 (homodimerized antibody, Ho Ab) (antibody, human IgG1, kappa)
heavy: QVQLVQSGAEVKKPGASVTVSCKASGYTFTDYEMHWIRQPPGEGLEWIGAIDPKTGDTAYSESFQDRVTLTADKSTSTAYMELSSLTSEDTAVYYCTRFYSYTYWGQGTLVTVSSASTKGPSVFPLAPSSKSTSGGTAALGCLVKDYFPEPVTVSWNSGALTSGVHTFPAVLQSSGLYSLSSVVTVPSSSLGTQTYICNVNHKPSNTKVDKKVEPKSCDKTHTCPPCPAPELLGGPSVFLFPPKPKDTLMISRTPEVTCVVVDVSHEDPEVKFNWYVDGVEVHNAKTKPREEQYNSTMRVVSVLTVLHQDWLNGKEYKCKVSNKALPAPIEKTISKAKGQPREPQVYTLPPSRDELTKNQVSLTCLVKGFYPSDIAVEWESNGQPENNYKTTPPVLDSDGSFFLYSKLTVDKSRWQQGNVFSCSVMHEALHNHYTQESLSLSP
light: B1 light
notes: Anti-glypican-3 IgG1 (GpH7-B3 background); substitution in both H chains; Position is EU numbering; also called Ho Ab Y300M
B6: GpH7-A5/GpH7-B3 variant T335_02A/GpL16-k0 (heterodimerized antibody, He Ab) (antibody, human IgG1, kappa)
heavy 1: not shown
heavy 2: not shown
light: B1 light
notes: Anti-glypican-3 IgG1; the substitution stands only in the GpH7-B3 chain, the other H chain is GpH7-A5 (D356K/H435R); Position is EU numbering; also called He Ab T335A
B7: GpH7-A5/GpH7-B3 variant T335_04F/GpL16-k0 (heterodimerized antibody, He Ab) (antibody, human IgG1, kappa)
heavy 1: not shown
heavy 2: not shown
light: B1 light
notes: Anti-glypican-3 IgG1; substitution only in the GpH7-B3 chain; Position is EU numbering; also called He Ab T335F

target: T1, FcγRIIa H (FcγRIIa, allotype with His …); assay: SPR (Biacore T100), antibody captured on antigen-peptide chip, FcγRIIa H as analyte; response per captured antibody relative to GpH7-B3/GpL16-k0
Description: (§1) Analysis of interaction between objective antibody and the FcγR was carried out using Biacore T100 (GE Healthcare). HBS-EP+ (GE Healthcare) was used as the running buffer, and the measurement temperature was set to 25° C. Chips produced by immobilizing the antigen peptide by the amine coupling method to a Series S Sencor Chip CM5 (GE Healthcare), or alternatively, chips produced by allowing preliminarily biotinylated antigen peptides to interact with and immobilize onto a Series S Sensor Chip SA (certified) (GE Healthcare) were used. Antibodies of interest were captured onto an antigen peptide-immobilized chip, and allowed to interact to each FcγR diluted with running buffer. To regenerate and repeatedly use the chip, the antibodies captured on the chip were washed off by reacting 10 mM glycine-HCl, pH 1.5.

| Ho/Con_2aH | Binder |
| --- | --- |
| 110 relative binding activity (control homodimerized antibody GpH7-B3/GpL16-k0 = 100) | B1 |
| 122 relative binding activity (control homodimerized antibody GpH7-B3/GpL16-k0 = 100) | B2 |
| 106 relative binding activity (control homodimerized antibody GpH7-B3/GpL16-k0 = 100) | B3 |
| 104 relative binding activity (control homodimerized antibody GpH7-B3/GpL16-k0 = 100) | B4 |
| 106 relative binding activity (control homodimerized antibody GpH7-B3/GpL16-k0 = 100) | B5 |

target: T1, FcγRIIa H (FcγRIIa, allotype with His …); assay: SPR (Biacore T100), antibody captured on antigen-peptide chip, FcγRIIa H as analyte; response per captured antibody relative to GpH7-A5/GpH7-B3/GpL16-k0
Description: as §1

| He/Con_2aH | Binder |
| --- | --- |
| 101 relative binding activity (control heterodimerized antibody GpH7-A5/GpH7-B3/GpL16-k0 = 100) | B6 |
| 103 relative binding activity (control heterodimerized antibody GpH7-A5/GpH7-B3/GpL16-k0 = 100) | B7 |
